This experiment in a line: Effect of pH on 6-O-sulfatase activity by capillary electrophoresis. The experiment is classed as biochemical. On the procedure:
Initial assessment of substrate specificity and pH optima was made using a capillary electrophoresis-based assay for the detection of desulfated products. Preliminary enzyme activity was measured against the following series of fluorescently derivatized, monosulfated gluco and galactopyranosides: 4-MU-GlcNAc,6S, 4-MU-GlcNS, 4-MU-GalNAc,6S and 4-MU-Gal6S. Standard reactions included 1 mM substrate, 1-10 μM enzyme, 50 mM sodium acetate, pH 5.5-6.5 and 5 mM CaCl2 in a 20 μL reaction volume. For pilot experiments, exhaustive reactions involved overnight incubations at 30° C. Enzyme was inactivated by heat denaturation at 95° C. for 10 minutes, followed by a 10-fold dilution into water. Reaction products were resolved by capillary electrophoresis using a 25 cm long, 75 μm (i.d.) fused silica capillary (Agilent Technologies, Palo Alto, Calif.). […] Substrate desulfation was measured as a percentage of substrate depletion relative to a minus enzyme control as monitored by the loss of UV absorbance at 315 nm detected at approximately 4 minutes. […]
The effect of pH was likewise measured by capillary electrophoresis using the following three sets of buffers with overlapping pH ranging from 4.5 to 8.0:50 mM sodium citrate at 4.5, 5.0, and 5.5; 50 mM MES at 5.5, 6.0, 6.5 and 7.0; and 50 mM MOPS at 6.5, 7.0, 7.5, and 8.0. […]

B1: Flavobacterium heparinum 6-O-sulfatase (ORF B), recombinant, NH2-terminal truncation lacking signal sequence, SEQ ID NO: 2 (Pedobacter heparinus DSM 2366) (protein)
chain: TLMSCQQPKPAESAKRPNIVFIMTDDHTIQAISAYGSKLVKTPNLDRIANEGMLFNNCFVTNAVCGPSRATILTGKYSHLNGLTDNSKVFDSTQVIYPQLLKKAGYQTAMIGKWHLGSTPMGFDYYSILPNQGQYYQPEFIENGHLVKEKGYVTDLITDKAIGFLEKRDHDKPFLMIYQHKAPHRNWLPAPRHLGMFDDTVFPEPANLLDDFKGRGRAAKEQLMNISTDMWPAWDLKMLSTAQLDSMAKLPVSPKFKDAKGDDYQQANDPSLDKARFFEVYNRMTDAEKVQWRKVYDKRVAEFKRLNPKGADLVRWKYQQYMRDYLACVVSVDENVGRLMDYLKKIGELDNTIIVYTSDQGFYLGEHGYFDKRFMYDESFRTPLMVRYPPSVKAGSVSNAFAMNLDFAPTLLDYAGVKIPADMQGLSLRPVLDNAGKSPENWRKAVYYHYYEFPSWHMVKRHYGIRTERYKLIHFYNDIDEWELYDMQKDPHEMQNLYNDKAYEPIIKDLKVQMKKLQVQYKDTNPTEAL
notes: E. coli BL21(DE3), N-terminal 6xHis removed by thrombin
Consider B1, for which, where the note is “below pH 4.5”, the “activity below pH 4.5” value was “Neither enzyme was active”. Besides, where the note is “same pH range”, the “activity in acetate buffer compared to sulfonate buffers (MES, MOPS)” value is recorded as “higher activity in acetate buffer”.

The values above are taken from patent publication US8846363B2, “Compositions of and methods of using sulfatases from Flavobacterium heparinum” (priority 2007, dated 2014).
